Source: patent publication US20190062383A1

Tests used:
human Kv1.1 (human) [1] = molecular target: human Kv1.1 (human) (UniProt Q09470)
human Kv1.3 (human) [2] = molecular target: human Kv1.3 (human) (UniProt P22001)
human Kv1.1 (human) [3] = molecular target: human Kv1.1 (human) (UniProt Q09470); experiment: cell-based or functional assay
human Kv1.3 (human) [4] = molecular target: human Kv1.3 (human) (UniProt P22001); experiment: cell-based or functional assay

Sequence of human Kv1.1 (human) (Q09470 whole entry): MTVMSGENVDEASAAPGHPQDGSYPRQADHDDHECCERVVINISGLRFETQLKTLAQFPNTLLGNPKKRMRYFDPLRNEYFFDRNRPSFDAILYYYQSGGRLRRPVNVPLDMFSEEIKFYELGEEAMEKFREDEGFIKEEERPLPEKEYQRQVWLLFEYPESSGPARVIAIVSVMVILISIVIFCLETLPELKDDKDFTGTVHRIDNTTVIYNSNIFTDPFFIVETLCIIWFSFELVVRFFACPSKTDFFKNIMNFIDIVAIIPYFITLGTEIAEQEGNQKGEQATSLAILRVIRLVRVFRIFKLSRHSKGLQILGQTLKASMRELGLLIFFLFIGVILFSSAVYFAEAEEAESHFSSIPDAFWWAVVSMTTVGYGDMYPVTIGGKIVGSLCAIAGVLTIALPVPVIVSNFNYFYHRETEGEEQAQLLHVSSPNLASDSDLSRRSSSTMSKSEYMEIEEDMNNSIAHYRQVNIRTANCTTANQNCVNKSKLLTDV
Sequence of human Kv1.3 (human) (P22001 whole entry): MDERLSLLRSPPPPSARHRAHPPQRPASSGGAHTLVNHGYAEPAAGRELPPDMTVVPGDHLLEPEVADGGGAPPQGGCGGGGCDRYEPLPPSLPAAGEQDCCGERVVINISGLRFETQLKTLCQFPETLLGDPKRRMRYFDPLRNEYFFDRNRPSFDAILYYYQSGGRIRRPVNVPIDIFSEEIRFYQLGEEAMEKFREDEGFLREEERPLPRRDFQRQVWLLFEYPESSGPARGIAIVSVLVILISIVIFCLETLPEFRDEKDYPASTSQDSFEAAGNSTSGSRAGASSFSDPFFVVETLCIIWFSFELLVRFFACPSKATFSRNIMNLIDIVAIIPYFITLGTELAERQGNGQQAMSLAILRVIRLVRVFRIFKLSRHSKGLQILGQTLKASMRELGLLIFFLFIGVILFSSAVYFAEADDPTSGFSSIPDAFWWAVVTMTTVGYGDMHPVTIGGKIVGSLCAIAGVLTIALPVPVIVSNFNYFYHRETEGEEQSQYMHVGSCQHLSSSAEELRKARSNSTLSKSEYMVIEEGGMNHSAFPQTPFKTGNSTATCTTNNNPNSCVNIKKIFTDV

Substance	thallium flux KV1.1 IC50 (human Kv1.1 (human) [1]) [nM]	Kv1.1 IC50, whole-cell patch clamp (human Kv1.1 (human) [3]) [nM]	Kv1.3 IC50, whole-cell patch clamp (human Kv1.3 (human) [4]) [nM]	further results
KV1C2 (OdK2-Fc fusion)	> 1000			
KV1N2 (OsK1-Fc fusion)	0.1	2		thallium flux KV1.3 IC50 (human Kv1.3 (human) [2]): 0.03 nM; Kv1.1 IC50, patch clamp (human Kv1.1 (human) [3]): 2 nM; Kv1.3 IC50, patch clamp (human Kv1.3 (human) [4]): 0.3 nM
wild type OdK2 peptide			0.1	
wild type OsK1 peptide		0.21	0.01	CD4+ T cell inhibition IC50 (human Kv1.3 (human) [4]): 0.03 nM; CD8+ T cell inhibition IC50 (human Kv1.3 (human) [4]): 0.03 nM
